Source: patent US20260242478A1 (published 2026)

B1: Phage-1019 (Peptide-87 library peptide, SEQ ID NO: 1335) (peptide)
peptide: YCDGHLALHMKKCL
notes: tested as crude clonal phage supernatant
B2: Phage-1011 (Peptide-87 library peptide, SEQ ID NO: 1327) (peptide)
peptide: YCDGHSAEYLSKCL
notes: as for B1
B3: Phage-1018 (Peptide-87 library peptide, SEQ ID NO: 1334) (peptide)
peptide: YCDGHHKEYLLKCL
notes: as for B1
B4: Phage-1017 (Peptide-87 library peptide, SEQ ID NO: 1333) (peptide)
peptide: YCSGHLPQYLEKCL
notes: as for B1
B5: Phage-1016 (Peptide-87 library peptide, SEQ ID NO: 1332) (peptide)
peptide: YCDGHSPQYIQKCL
notes: as for B1
B6: Phage-1015 (Peptide-87 library peptide, SEQ ID NO: 1331) (peptide)
peptide: YCDGHKAEYMQKCL
notes: as for B1
B7: Phage-1002 (peptide)
peptide: YCDGHLQIYMGKCL
notes: as for B1
B8: Phage-1007 (peptide)
peptide: YCAGHLPVYMDKCL
notes: as for B1
B9: Phage-1009 (peptide)
peptide: YCAGHLEEYMWKCL
notes: as for B1
B10: Phage-1006 (peptide)
peptide: YCDGHLAVYMAKCL
notes: as for B1
B11: Phage-1001 (peptide)
peptide: YCEGHSIQYMTKCL
notes: as for B1
B12: Phage-1008 (peptide)
peptide: YCEGHSAMYIWKCL
notes: as for B1
B13: Phage-1004 (peptide)
peptide: YCDGHAWQYMWKCL
notes: as for B1
B14: Phage-1003 (peptide)
peptide: YCDGHSVEYLDKCL
notes: as for B1
B15: Phage-1005 (peptide)
peptide: YCDGHLPEYLAKCL
notes: as for B1
B16: Phage-1043 (peptide)
peptide: YCEGHAVEYMAKCL
notes: Tested as clonal phage supernatant
B17: Phage-1041 (peptide)
peptide: YCAGHLPQYIQKCL
notes: as for B16
B18: Phage-1044 (peptide)
peptide: YCEGHLPIYMEKCL
notes: as for B16
B19: Phage-1038 (peptide)
peptide: YCDGHAEEYMAKCL
notes: as for B16
B20: Phage-1042 (peptide)
peptide: YCEGHLAIYQKKCL
notes: as for B16
B21: Phage-1039 (peptide)
peptide: YCDGHSLQYMSKCL
notes: as for B16
B22: Phage-1045 (peptide)
peptide: YCEGHSMEYIQKCL
notes: as for B16
B23: Phage-1036 (peptide)
peptide: YCQGHIEPYLAKCL
notes: as for B16
B24: Phage-1037 (peptide)
peptide: YCDGHLAIYMWKCL
notes: as for B16
B25: Phage-1040 (peptide)
peptide: YCEGHLPQYMTKCI
notes: as for B16
B26: Phage-1025 (peptide)
peptide: YCAGHTVENMAKCL
B27: Phage-1028 (peptide)
peptide: YCEGHLDQYMTKCL
B28: Phage-1024 (peptide)
peptide: YCEGHRPEYMQKCV
B29: Phage-1030 (peptide)
peptide: YCDGHLAIYIGKCL
B30: Phage-1032 (peptide)
peptide: YCDGHLLEYMSKCL
B31: Phage-1027 (peptide)
peptide: YCDGHVAEYRHKCL
B32: Phage-1035 (peptide)
peptide: YCEGHTPVYMPKCL
B33: Phage-1034 (peptide)
peptide: YCEGHSLEHIAKCL
B34: Phage-1029 (peptide)
peptide: YCAGHTQEYIEKCL
B35: Phage-1026 (peptide)
peptide: YCEGHVLEYRGKCD
B36: Phage-1033 (peptide)
peptide: YCDGHSLEYMVKCL
B37: Phage-1031 (peptide)
peptide: YCDGHLEIYMSKCL
B38: Phage-1023 (peptide)
peptide: YCDGHLPEYITKCL

molecular target: T1, Anti-CD28 Fab (SEQ ID NOs: 696, 697); assay: phage binding ELISA on captured Fab; competitor: CD28 antigen pre-incubated in the wells
T1 construct: Biotinylated and captured on neutravidin coated plates in the phage ELISA
T1 sequence (VH, as listed by the source, chain 1 of 2): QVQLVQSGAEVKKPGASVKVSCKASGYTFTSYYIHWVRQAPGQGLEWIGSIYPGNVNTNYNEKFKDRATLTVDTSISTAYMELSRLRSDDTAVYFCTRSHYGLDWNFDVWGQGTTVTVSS
T1 sequence (VL, as listed by the source, chain 2 of 2): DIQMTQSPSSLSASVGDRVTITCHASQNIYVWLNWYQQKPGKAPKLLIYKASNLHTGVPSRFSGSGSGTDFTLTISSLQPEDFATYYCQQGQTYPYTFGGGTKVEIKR
Method: (§1) After panning, phage infected bacteria were plated out and colonies picked into 96 well blocks. Clonal phage was then amplified and separated from bacterial cells via centrifugation.
(§2) Clonal phage were harvested as crude supematants and screened via standard ELISAs. […] Prior to the addition of clonal phage, wells were incubated with blocking buffer and CD28 antigen or blocking buffer alone. Without washing or aspirating, clonal phage supematants were then added to the wells and incubated for a short time. Wells were then washed followed by detection of bound phage using a horse radish conjugated anti-M13 antibody. Clonal phage of interest were then sent for sequence analysis.

Row | Binder | Anti-CD28 Fab signal in the presence of CD28 (phage binding ELISA)
1 | B1 | 0.08
2 | B2 | 0.07
3 | B3 | 0.06
4 | B4 | 0.31
5 | B5 | 0.07
6 | B6 | 0.06

molecular target: T2, Anti-CD28 Fab (SEQ ID NOs: 696, 697); assay: phage ELISA; clonal phage on plate-captured anti-CD28 Fab pre-incubated with CD28 antigen as competitor
T2 construct: Biotinylated and captured on neutravidin coated plates in the phage ELISA
T2 sequence (VH, as listed by the source, chain 1 of 2): as the sequence (VH, as listed by the source, chain 1 of 2) above
T2 sequence (VL, as listed by the source, chain 2 of 2): as the sequence (VL, as listed by the source, chain 2 of 2) above
Method: as §1, §2

Row | Binder | Phage binding ELISA, Anti-CD28 Fab signal in the presence of CD28
7 | B7 | 0.06
8 | B8 | 0.08
9 | B9 | 0.08
10 | B10 | 0.08
11 | B11 | 0.13
12 | B12 | 0.1
13 | B13 | 0.07
14 | B14 | 0.08
15 | B15 | 0.06

molecular target: T2, Anti-CD28 Fab (SEQ ID NOs: 696, 697); assay: phage ELISA; clonal phage on plate-captured biotinylated anti-CD28 Fab, anti-M13 HRP detection
Method: as §1, §2

Row | Binder | Phage binding ELISA, Anti-CD28 Fab signal
16 | B7 | 1.53
17 | B8 | 1.52
18 | B9 | 1.51
19 | B10 | 1.52
20 | B11 | 1.53
21 | B12 | 1.52
22 | B13 | 1.53
23 | B14 | 1.53
24 | B15 | 1.52

molecular target: T3, Anti-CD28 Fab (SEQ ID NOs: 696, 697); assay: phage ELISA as above with wells pre-incubated with CD28 antigen as competitor
T3 construct: In the phage ELISA the Fab was biotinylated and captured on neutravidin coated plates
T3 sequence (VH, as listed by the source, chain 1 of 2): as the sequence (VH, as listed by the source, chain 1 of 2) above
T3 sequence (VL, as listed by the source, chain 2 of 2): as the sequence (VL, as listed by the source, chain 2 of 2) above
Method: as §1, §2

Row | Binder | Anti-CD28 Fab signal in the presence of CD28 (phage binding ELISA)
25 | B16 | 0.07
26 | B17 | 0.07
27 | B18 | 0.07
28 | B19 | 0.06
29 | B20 | 0.06
30 | B21 | 0.06
31 | B22 | 0.07
32 | B23 | 0.05
33 | B24 | 0.09
34 | B25 | 0.08

molecular target: T3, Anti-CD28 Fab (SEQ ID NOs: 696, 697); assay: phage ELISA; biotinylated anti-CD28 Fab on neutravidin plate, clonal phage supernatant, anti-M13 HRP detection;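 note: crude supernatants of single phage clones picked after panning were screened for binding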

Row | Binder | Anti-CD28 Fab signal (phage binding ELISA)
35 | B16 | 1.44
36 | B17 | 1.44
37 | B18 | 1.44
38 | B19 | 1.45
39 | B20 | 1.44
40 | B21 | 1.45
41 | B22 | 1.44
42 | B23 | 1.46
43 | B24 | 1.45
44 | B25 | 1.44

molecular target: Anti-CD28 Fab (SEQ ID NOs: 696, 697); assay: phage binding ELISA on Fab coated plate; CD28 antigen as competitor
Target sequence in this assay (VH, as listed by the source, chain 1 of 2): as the sequence (VH, as listed by the source, chain 1 of 2) above
Target sequence in this assay (VL, as listed by the source, chain 2 of 2): as the sequence (VL, as listed by the source, chain 2 of 2) above
Method: as §1, §2

Row | Binder | Anti-CD28 Fab signal in the presence of CD28
45 | B26 | 0.07
46 | B27 | 0.08
47 | B28 | 0.09
48 | B29 | 0.08
49 | B30 | 0.09
50 | B31 | 0.06
51 | B32 | 0.06
52 | B33 | 0.07
53 | B34 | 0.06
54 | B35 | 0.09
55 | B36 | 0.06
56 | B37 | 0.08
57 | B38 | 0.06

molecular target: Anti-CD28 Fab (SEQ ID NOs: 696, 697); assay: phage binding ELISA; biotinylated Fab on neutravidin plate, anti-M13 HRP detection
Target sequence in this assay (VH, as listed by the source, chain 1 of 2): as the sequence (VH, as listed by the source, chain 1 of 2) above
Target sequence in this assay (VL, as listed by the source, chain 2 of 2): as the sequence (VL, as listed by the source, chain 2 of 2) above
Method: as §1, §2

Row | Binder | Anti-CD28 Fab (SEQ ID NOs: 696, 697) signal
58 | B26 | 1.48
59 | B27 | 1.47
60 | B28 | 1.48
61 | B29 | 1.47
62 | B30 | 1.46
63 | B31 | 1.47
64 | B32 | 1.46
65 | B33 | 1.46
66 | B34 | 1.47
67 | B35 | 1.48
68 | B36 | 1.46
69 | B37 | 1.46
70 | B38 | 1.49
